Sequences and labels used below:
B1: H0 (antibody, human IgG1, kappa)
heavy: not shown
light: DIQMTQSPSSVSASVGDRVTITCRASQDIANYLSWYQQKPGKSPKLLIYGTSNLEVGVPSRFSGSRSGTDFTLTISSLQPEDFATYYCLQDKEFPRTFGGGTKVEIKRTVAAPSVFIFPPSDEQLKSGTASVVCLLNNFYPREAKVQWKVDNALQSGNSQESVTEQDSKDSTYSLSSTLTLSKADYEKHKVYACEVTHQGLSSPVTKSFNRGEC
B2: H2 (antibody)
heavy: not shown
light: DIQMTQSPSSVSASVGDRVTITCRASQDIANYLSWYQQKPGKSPKLLIYGTSNLEVGVPSRFSGSRSGTDFTLTISSLQPEDFATYYCLQDKEFPRTFGGGTKVEIKFDPVYKVKPNPPHNLSVINSEELSSILKLTWTNPSIKSVIILKYNIQYRTKDASTWSQIPPEDTASTRSSFTVQDLKPFTEYVFRIRCMKEDGKGYWSDWSEEASGIT
B3: R6 (antibody)
heavy: not shown
light: DIQMTQSPSSLSASVGDRVTITCLASEGISSYLAWYQQKPGKAPKLLIYGANSLQTGVPSRFSGSGSATDYTLTISSLQPEDFATYYCQQSYKFPNTFGQGTKVEVKQGSPPCFLRFPRPVRVVSGAEAELKCVVLGEPPPVVVWEKGGQQLAASERLSFPADGAEHGLLLTAALPTDAGVYVCRARNAAGEAYAAAAVTVLEPP
B4: R0 (antibody, human IgG1, kappa)
heavy: not shown
light: DIQMTQSPSSLSASVGDRVTITCLASEGISSYLAWYQQKPGKAPKLLIYGANSLQTGVPSRFSGSGSATDYTLTISSLQPEDFATYYCQQSYKFPNTFGQGTKVEVKRTVAAPSVFIFPPSDEQLKSGTASVVCLLNNFYPREAKVQWKVDNALQSGNSQESVTEQDSKDSTYSLSSTLTLSKADYEKHKVYACEVTHQGLSSPVTKSFNRGEC
B5: R2 (antibody)
heavy: not shown
light: DIQMTQSPSSLSASVGDRVTITCLASEGISSYLAWYQQKPGKAPKLLIYGANSLQTGVPSRFSGSGSATDYTLTISSLQPEDFATYYCQQSYKFPNTFGQGTKVEVKFDPVYKVKPNPPHNLSVINSEELSSILKLTWTNPSIKSVIILKYNIQYRTKDASTWSQIPPEDTASTRSSFTVQDLKPFTEYVFRIRCMKEDGKGYWSDWSEEASGIT
B6: R3 (antibody)
heavy: not shown
light: DIQMTQSPSSLSASVGDRVTITCLASEGISSYLAWYQQKPGKAPKLLIYGANSLQTGVPSRFSGSGSATDYTLTISSLQPEDFATYYCQQSYKFPNTFGQGTKVEVKGIPPKIEALPSDISIDEGKVLTVACAFTGEPTPEVTWSCGGRKIHSQEQGRFHIENTDDLTTLIIMDVQKQDGGLYTLSLGNEFGSDSATVNIHIRSI
B7: R4 (antibody)
heavy: not shown
light: B6 light
B8: H1 (antibody)
heavy: not shown
light: DIQMTQSPSSVSASVGDRVTITCRASQDIANYLSWYQQKPGKSPKLLIYGTSNLEVGVPSRFSGSRSGTDFTLTISSLQPEDFATYYCLQDKEFPRTFGGGTKVEIKGILQPDPPANITVTAVARNPRWLSVTWQDPHSWNSSFYRLRFELRYRAERSKTFTTWMVKDLQHHCVIHDAWSGLRHVVQLRAQEEFGQGEWSEWSPEAMGTPW
B9: R1 (antibody)
heavy: not shown
light: DIQMTQSPSSLSASVGDRVTITCLASEGISSYLAWYQQKPGKAPKLLIYGANSLQTGVPSRFSGSGSATDYTLTISSLQPEDFATYYCQQSYKFPNTFGQGTKVEVKGILQPDPPANITVTAVARNPRWLSVTWQDPHSWNSSFYRLRFELRYRAERSKTFTTWMVKDLQHHCVIHDAWSGLRHVVQLRAQEEFGQGEWSEWSPEAMGTPW

The record followed here is patent US20240392020A1 (JIANGSU HENGRUI PHARMACEUTICALS, published 2024).

The term EC50 denotes the concentration giving half of the maximal effect. Lower therefore signals an effect from little substance.

In the test the target is T1, hIL-5 (human, UniProt P05113 20-134).
T1 construct: bought
The experiment in a line: ELISA. (ELISA stands for enzyme-linked immunosorbent assay.)
Method: For an antibody targeting a soluble protein, the binding activity of the antibody against the soluble protein was detected by ELISA. […] After the blocking was completed, the blocking solution was discarded; and the plate was washed 3 times with a PBST buffer (pH 7.4, PBS containing 0.1% tween-20). 100 μL of the antibody solution diluted in a gradient was added to each well, and the mixture was incubated at 37° C. for 1 h. After the incubation was completed, the plate was washed 3 times with PBST. […] The plate was washed 3 times with PBST. […] The reaction was stopped by adding 50 μL of 1 M H₂SO₄ to each well. The absorbance values at 450 nm were read on a microplate reader, the binding curves of the antibodies to an antigen were fitted with software, and the EC₅₀ values were calculated.
As to B1, the midpoint of the response, the EC50, lay at 1.74 nM.

The molecule B2 yielded an EC50 of 24.4 nM.

As to B3, the response was half-maximal at 2.02 nM (EC50).

The molecule B4 displayed an EC50 of 1.75 nM.

B5: the EC50 was 18.4 nM.

As for B6, the concentration giving a half-maximal response (EC50) turned out to be 1.58 nM.

In the case of B7, the EC50 was 1.67 nM.

Molecule B8 yielded an EC50 of 19.4 nM.

The molecule B9 yielded an EC50 of 24.4 nM.
